Where a chain is given by its changes, count along the chain named. In names and notes the source's numbering stands.
T1: IFNλR1 (UniProt Q8IU57 21-228)
T1 sequence (looked up): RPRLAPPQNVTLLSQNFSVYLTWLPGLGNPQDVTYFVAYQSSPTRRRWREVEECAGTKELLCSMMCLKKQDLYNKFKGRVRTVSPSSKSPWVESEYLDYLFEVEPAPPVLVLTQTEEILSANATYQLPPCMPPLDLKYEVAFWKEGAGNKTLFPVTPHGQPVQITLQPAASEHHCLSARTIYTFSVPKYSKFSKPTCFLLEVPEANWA

T2: IL10Rβ (UniProt Q08334 20-220)
T2 sequence (looked up): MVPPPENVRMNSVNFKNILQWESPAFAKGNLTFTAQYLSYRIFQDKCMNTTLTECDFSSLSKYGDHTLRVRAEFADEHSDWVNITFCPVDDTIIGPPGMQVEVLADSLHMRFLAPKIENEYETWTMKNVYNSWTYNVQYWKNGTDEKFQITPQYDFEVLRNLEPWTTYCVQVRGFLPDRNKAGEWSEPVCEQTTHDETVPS

B1: IFNλ4 variant M1 (L28N) (ligand, human, UniProt K9M1U5 22-179, looked up)
chain: AAPRRCNLSHYRSLEPRTLAAAKALRDRYEEEALSWGQRNCSFRPRRDPPRPSSCARLRHVARGIADAQAVLSGLHRSELLPGAGPILELLAAAGRDVAACLELARPGSSRKVPGAQKRRHKPRRADSPRCRKASVVFNLLRLLTWELRLAAHSGPCL
modifications: biotinylated (site not stated) for BLI; N-glycan at N61; mutated L28N not glycosylated
B2: IFNλ4 variant M3 (P73N) (ligand, human, UniProt K9M1U5 22-179, looked up)
chain: B1 chain with N7L, P52N
modifications: biotinylated (site not stated) for BLI; N-glycans at N61 and at mutated P73N
B3: IFNλ4 variant M7 (L28N + P73N) (ligand, human, UniProt K9M1U5 22-179, looked up)
chain: B1 chain with P52N
modifications: biotinylated (site not stated) for BLI; N-glycans at N61 and at mutated P73N; mutated L28N not glycosylated
B4: IFNλ4 WT purified from E. coli (eIFNλ4) (ligand, human, UniProt K9M1U5 22-179, looked up)
chain: B1 chain with N7L
modifications: biotinylated (site not stated) for BLI

The binders below were run against T1, IFNλR1 (assay: BLI).

With B1 as the binder, how does the Kd read?
Its Kd is 14 nM.

How did the Kd turn out when B2 was run?
Its Kd is 22 nM.

How did the Kd turn out when B3 was run?
Its Kd is 17 nM.

How did the Kd turn out when B4 was run?
Its Kd is 19 nM.

What follows are binders tested against T2, IL10Rβ (assay: BLI).

B1 was tested. Which Kd did it give?
The Kd was 49 nM.

Which Kd does the source give for B2 here?
The Kd was 51 nM.

How did the Kd turn out when B3 was run?
Its Kd is 49 nM.

How did the Kd turn out when B4 was run?
Its Kd is 71 nM.

Source: PMC7129780 (Cytokine, 2019)
